Data on 2 substances can be found in US20230322922A1.

The Kd is a measure of binding affinity in units of concentration.

For test [1], the target named is human HER2 expressed on target cells (BT-474, SKOV3, MCF-7, human cardiomyocytes) (human) (UniProt P04626). The test is described as follows: cell-based or functional assay.
Test [2] deals with cynomolgus monkey CD3 (cynomolgus monkey). The test is described as follows: surface plasmon resonance, equilibrium binding analysis.
Test [3] concerns the target cynomolgus monkey HER2 (cynomolgus monkey). The description is as above.
Test [4] has as its target human CD3 (human). The description is as above.
Test [5] has as its target human HER2 (human) (UniProt P04626). The test is described as above.

Regarding AMX-818 (bispecific antibody), in test [1], the T cell-mediated cytotoxicity against BT474 cells (PBMC 1:1, 48 h, CellTiter-Glo), EC50 amounted to 49.4 nM. Also, in test [1], the T cell-mediated cytotoxicity against SKOV3 cells (PBMC 1:1, 48 h, CellTiter-Glo), EC50 was 44.5 nM. The Kd is 140 nM in test [2], 20.1 nM in test [3], 160 nM in test [4] and 24.9 nM in test [5]. In addition, the fold reduction of affinity by masking, against AMX-818(PAT) was 6 fold in test [2], 10 fold in test [3] and 6 fold in test [4].

Take AMX-818(PAT) (bispecific antibody): in test [1], the Jurkat NFAT-Luciferase reporter T cell activation in the presence of BT-474 cells, EC50 worked out at 0.07 nM; the T cell-mediated cytotoxicity against BT474 cells (PBMC 1:1, 48 h, CellTiter-Glo), EC50 came out at 0.0048 nM; the T cell-mediated cytotoxicity against SKOV3 cells (PBMC 1:1, 48 h, CellTiter-Glo), EC50 came to 0.0034 nM; the cytotoxicity against BT-474 tumor cells with PBMC effectors (1:1), IC50 lay within 0.005 to 0.011 nM. Moreover, the equilibrium dissociation constant (Kd) in test [2] came to 21.5 nM. Further, the Kd in test [3] was found to be 2 nM. In test [4], this substance displayed a Kd of 26.3 nM.
